The nature of this data set: soluble fraction after stress (log2 fold change); higher = more stays soluble; pooled small domains, quantitative proteomics. The following applies: stress: 75 degC.
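Note: 20 min heating vs room temperature control held 20 min.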

Regarding “HMTKEEFLYELKKELSALDSAEATAYNLRYYSDYIDAEIAKGRSEQEVLDELGNPRWLVNSIKESG”, the “soluble fraction (log2)” value is -0.139.

With “HMTKGDRIKARREELGLTQTDLAEAISSTKQNIYKYENNIISNIPSDKVEAIAEVLKISPAYLMGWGDE”, the “soluble fraction (log2)” value is -0.0377. As for “HMTKGFSIQDISLSKSTMTFLQQNKITDLASLLSMSKSQIEGMKGFKPKMIQEIEKNLDKVGLVLAQD”, the figure is -0.243; as for “HMTKGVKVEIGTEEASVDLYVVMEYGTPIQKAAYDAQESVRKAIETMTNLHVVRVDVHVQGVSF”, -0.466; as for “HMTKGVWHTVKKGENLYRISLYYEVPQQEIKKANKIETENIVVGQKLFIPNTTKKSPIFALTP”, -1.72. As for “HMTKIDYSINQIYSLRNIENITIVLKDKRSFTGKILKIYWQNGSKIILFTTETRNYKFKEYEISEIYKS”, the “soluble fraction (log2)” value was -1.02. Consider “HMTKIEYTEQEFNDFIQAYKNNRKMFPEDYIVKTQVVFINKGFSKSQADMIIAQIETRLRLQGE”, for which the “soluble fraction (log2)” value is -2.91. In the case of “HMTKIKAIFFDIDGTIRSFKTKTIPENTANTLKKLKEQGIKIFIATGRAPFHTTFLNDLLDFKFDGYITIN”, the “soluble fraction (log2)” value is -0.659.

Consider “HMTKKSLFNQYLDDQKRLDIVTLQKAELVDLHKLADELNIDQYNQLKKNELIFKILQSNPSE”, for which the “soluble fraction (log2)” value was found to be 0.162.

In the case of “HMTKNEFLQGLKEELEGRVTHSAIQENIRYYDDYISQEVLKGSTEEEVTESLGGPRIIARTIVDAAYD”, the “soluble fraction (log2)” value is 0.0243. Turning to “HMTKPLHELLSQREFQVFTQLAAGRSVGEIAQQLSLSSNTVSTYRARILEKTGTRNDVELALYAIRR”, the “soluble fraction (log2)” value is -2.31.

“HMTKPTLMEVEIKGAIQNPGVYTLKRNSSISKLIKMSGPLLENADTSSISFTHILQDKDVVVIPEIK”: the “soluble fraction (log2)” value was -0.194. The same measure for “HMTKQEYLNQLKNELVKQGVADAEDVVTEYEQHFAFKLADGFGEEEIAKKLGDPAAIASQFVG”: 0.669; for “HMTKQMELLAQGAAKLSVDLNQRQLDQLQTYYRELVDWNQRMNLTAITQYEEVQVKHFLDSL”: -0.477. For “HMTKRKNTEFRQQQIIEAAAKLIFKYGSEHLTVKRIAAQVGISEAAIYRHFTSKKSILSFLLSHIEE”, the “soluble fraction (log2)” value was -0.362. “HMTKRTVKSVARKIADFNRERHRMPTYEEMLTLLAVRSKSVVHFWMNKLLQEGILEKDESGHLTFV”: the “soluble fraction (log2)” value is -0.179. With “HMTKSSAYLSAEKLINKKQYSDAIVKLNDALVTDSKNADIYNYLGFSHRKLGKMEDAAFFYNKALE”, the “soluble fraction (log2)” value was 0.0234.

With “HMTLDDSFYQKADEIIANHTKEERSLIPIIQDIQAEYRYLPPELLTYVAKEIGITDARAYSVASFYENFS”, the “soluble fraction (log2)” value is -0.521. Take “HMTLDEDYFYYTLKAKEGYYRLYKKLGVDRKIIDSLNPNLKEMGLQVGMVIRVPKSQTSDLSVKNSLLVE”: the “soluble fraction (log2)” value was -1.64. As for “HMTLHDLFPQAVEFVSEKEMISTAELQRKLMISYNSAAKIIDQLLHVDFIQKSESAGKYSVLIK”, the figure is -2.66. The same measure for “HMTLNTQLFTWKKGVRVGEDDQGNIYYRTKDDKRRWVIFTGETEATKVSPDWHGWLHRTWATPPNK”: -2.27.

On to “HMTLPGQDFIRASQLKELIAKYDKQYYEEGVSDISDAEYDRLYEEYLEFENKYPELKDMADAPTKRV”, for which the “soluble fraction (log2)” value was 0.659. For the sequence “HMTLREQISALIKQGKLTQAKLARETGVNGGALSAWINGKYTGNVETVEEPIKHWMALNERK”, the “soluble fraction (log2)” value is -0.342. “HMTLSVRQRMSQIINKIDVSNFTDFTKLFDINEGRLGVAVTFLAILELLKDTMIDVIQNEEFAPLHIKVSS”: the “soluble fraction (log2)” value came out at 0.128. As for “HMTMIIQLDKNITQEQRQFLVEELNRLSISPNFVSTQFTNYIVGIPKKEFDIRLIGNLPGIADIHFV”, the figure is -1.58; as for “HMTMKVTADILNMRSEASTNSDIVTKLKKDDELKVIEETKDDDGVTWVKVDFNGQVGFVSKEFLG”, 0.237. In the case of “HMTMLLEYNVSRSSKWMNKTIMDAEIPDDILIVMIKRNGQVIVPKGSTEILENDILVLSGNNLNEVALG”, the “soluble fraction (log2)” value was -3.02. The same measure for “HMTMNYYDILSIKRDATLEEIQKAYKEKSFQFHPDFNKGISDDSMFRIIKEAYETLSDTEKRNQYDASLNK”: 0.45. As for “HMTMQTAEQESRLEQKLIDLSVGIDRFEGYSRPHGQLIASIADRIGTRLGMAAHDRFYMQQAAL”, the “soluble fraction (log2)” value is 0.203. As for “HMTNADRFIGEEAMVIKKIDDINNDGQVKIAGQVWSAVSEDKSPLEEGTIVKVIAIRGVKLVVEPVS”, the figure is -0.369.

Take “HMTNALDMMKTMDSDAYTKYQKISKESSNEDRQLNELKYITNWYAGAVKKNPSMVDDYEKQKEADS”: the “soluble fraction (log2)” value is 0.302. With “HMTNELTEIFNSIRLTKKQKELLQSNYLSLRETYFLQGKTAFNLKFKNIAGLGKSTKKVLLEFFEESIE”, the “soluble fraction (log2)” value is -3.15. As for “HMTNIDIEKSIKNTITANYDDVLNYHNEDDNKTFASGDSRYSFDYDEKTKTLIVFTNSKVDAVFVDGIKKK”, the figure is 0.308; as for “HMTNISDYILEEYYKNVYPNDLNTKRIVIPNKYEEYAGKYTYITIARMVTYEHDAKKALKVLHQQAT”, -0.307. For the sequence “HMTNKYSSLVIGTVKTIMEEDQYKNLMGPPLKKEIIKQVDKFTNALPIEFDQNDKDFYVKKILINL”, the “soluble fraction (log2)” value is -0.377. As for “HMTNLKALRESKGVSQQTVADYLGITRQAYGNYETGKRQADYAALLRLAAFFGVSVDALLQP”, the figure is -1.18; as for “HMTNNDIIRRVRYLFNFSDKQVIELFKLANETVSIEHVSGWLKKEEDPTLIEISDRDLAVFLNGLII”, 0.557. For “HMTNQEFNEVFKLLLAAYPNTKDKESVATIYFLTIANELTKKEFAEAVVKILKTRKSGFIPQPAEILEVAK”, the “soluble fraction (log2)” value was -2.54.

As to “HMTNSAGIERFLASGAIDGVGPAMARRIVEHFGTEALRIIESVPHRLREISGIGPKTAEKIASSYMRQ”, the “soluble fraction (log2)” value was -1.15. With “HMTNTDALINRAAKVVEEINPDKNTGRVSIDGDLWRAKSSSGELIEQNKQVIVISIESTIVTVKI”, the “soluble fraction (log2)” value was -0.228. The same measure for “HMTNTWNNIVERNDLFFKKFTNTPFNGKIETYWPNGNLKETGIITDGKKDNLWEYYYENGNPKEVEF”: -0.876; for “HMTNVFSIIGKKALVIKDIDPIHSSGQIKLNGEVWSAETENDEIIKEGSEVEVLKINGVKAIVKLV”: -0.664; for “HMTNVIPKAMAPFNGSTIIADGIKNIKDHIDNLYITVGYKGATLSEHVINKGVSAVFNTTGKGNAWWVYN”: 0.343. As for “HMTNVLSEQESKLLERMNKAGLNAEITVKKAAQILNLSESAARNVLNRLVGKGYLTVDTSRLPFLFQR”, the figure is -0.277; as for “HMTNVVSKNKAKEIAMNIINDTVLQGQTAATFKEIVKANGVYVVKIEIQGQEYTSYITKDGKIVFPYGVEV”, -1.07.

“HMTNYSFIVNENFNNKRIDQVVANHYPKISRTKVNKIIKNNLLKLNGSTFNDPSAKVKLGDQIEFENL”: the “soluble fraction (log2)” value came to 0.434. With “HMTPAKQVSAKAERWIDQLGSSDWEKREEAAAELKKLGGAAKSALEKALKNADPEVASKAEELLEALES”, the “soluble fraction (log2)” value was found to be 0.19. Take “HMTPATVVIPKVAGQTVAEAKETLKNANFEIGEEKDESSDTVEEGRVIRTDPESGTNRKEGTKINLIVSS”: the “soluble fraction (log2)” value worked out at 0.0198. Regarding “HMTPFVINVDRHGAVIINEKTVDIDEAVVLARQERSQGKSILLAGDKKAPYEAIIRVLDALKQAG”, the “soluble fraction (log2)” value is -0.758. As for “HMTPNATWQDDAQNLLRDLIQHQPVLVQISAAKRLRDQAEQISRITGGETVTREHVEAAGHALGMGVT”, the “soluble fraction (log2)” value was 0.209.

Values taken from the domain aggregation screens of Martell et al. (2025).
